For assay [1], the target named is detergent soluble DR2 purified from an EBV transformed B cell line (human) (UniProt P01903). Put plainly: time course ELISA at 37°C, 200 nM DR2, 2 µM peptide, L243 capture. Background: An ELISA detects its analyte on a solid surface through an enzyme-linked reagent.
Assay [2] concerns the target recombinant HLA-DR2 fusion protein (DRα-Fos / DRβ-Jun heterodimer, DRA*0101 / DRB1*1501) secreted by Pichia pastoris (human). Described as above.

From patent EP0935607B1 come the findings set out here.

Some results are limits rather than exact numbers.

Take “biotinylated MBP(85-99) peptide, biotin-SGSG-MBP(85-99) (from UniProt P02686 85-99)”: the time to plateau of binding in assay [1] is above 48 h. Further, in assay [2], the time to 50% maximum binding was 3 h and the time to plateau of binding is 18 h.
